Data from patent US20250368734A1 (ANTENGENE BIOLOGICS, published 2025).

T1: mouse GPRC5D (mouse, UniProt Q9JIL6 1-344)
T1 construct: whole, on cells; HEK293T-mGPRC5D cells; also called mGPRC5D; murine GPRC5D
T1 sequence (looked up): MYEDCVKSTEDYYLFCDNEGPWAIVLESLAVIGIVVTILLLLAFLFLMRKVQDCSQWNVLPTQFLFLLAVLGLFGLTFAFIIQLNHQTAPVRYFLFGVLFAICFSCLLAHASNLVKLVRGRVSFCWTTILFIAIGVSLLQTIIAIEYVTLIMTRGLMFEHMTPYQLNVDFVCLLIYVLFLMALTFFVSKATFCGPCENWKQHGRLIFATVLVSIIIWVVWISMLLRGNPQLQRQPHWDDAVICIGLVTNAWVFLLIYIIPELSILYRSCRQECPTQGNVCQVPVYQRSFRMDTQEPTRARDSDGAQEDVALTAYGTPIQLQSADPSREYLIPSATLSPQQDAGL


Tests used:
cynomolgus monkey GPRC5D = target: T2, cynomolgus monkey GPRC5D (cynomolgus monkey); test: FACS, HEK293T-cynoGPRC5D cells
T2 construct: whole, on cells; HEK293T-cynoGPRC5D cells; also called cynoGPRC5D

human GPRC5D = target: T3, human GPRC5D (human, UniProt Q9NZD1 1-345); test: FACS, CHOS-hGPRC5D cells
T3 construct: whole, on cells; also called hGPRC5D; G-protein coupled receptor family C group 5 member D
T3 sequence (Q9NZD1 whole entry): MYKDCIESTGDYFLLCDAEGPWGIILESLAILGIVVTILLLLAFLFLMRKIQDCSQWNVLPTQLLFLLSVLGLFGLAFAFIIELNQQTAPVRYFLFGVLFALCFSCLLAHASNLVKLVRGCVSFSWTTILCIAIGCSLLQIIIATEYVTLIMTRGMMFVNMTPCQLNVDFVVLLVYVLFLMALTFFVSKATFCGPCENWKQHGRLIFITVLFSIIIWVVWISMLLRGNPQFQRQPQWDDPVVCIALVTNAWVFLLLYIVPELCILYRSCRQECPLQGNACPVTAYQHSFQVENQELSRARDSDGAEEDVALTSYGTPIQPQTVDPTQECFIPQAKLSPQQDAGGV

mouse GPRC5D = target: T1, mouse GPRC5D; test: FACS, HEK293T-mGPRC5D cells

| Binder | EC50 (cynomolgus monkey GPRC5D) | Top (cynomolgus monkey GPRC5D) | EC50 (human GPRC5D) | Top (human GPRC5D) | EC50 (mouse GPRC5D) | Top (mouse GPRC5D) |
| --- | --- | --- | --- | --- | --- | --- |
| ch98A3A8 (antibody, V domains shown) VH: EVQLQQSGPELVKPGASVKMSCKASGYTFTYYVTHWVRQKPGQGLEWIGYINPYNDGTMFNEKFKGKATLTSDKSSSTAYMEFSSLTSEDSAVFYCARGGVRRYFDVWGAGTTVTVSS VL: DIQMTQSPSSLSASLGERVSLTCRASQDIGSNLNWLQQKPDGTIKRLIYATSSLDSGVPKRFSGSRSGSDYSLTINSLESEDFVDYYCLQYASFPYTFGGGTKLEIK | 9.78 nM | 46800 | 1.39 nM | 2970 | 69.6 nM | 26000 |
| ch96C9E7 (antibody, V domains shown) VH: EVQLQQSGPELVKPGASVKMSCKASGYTFTYYILHWVKQKPGQGLEWIGYFNPYNDGNKFNERFRGKATLTSDKSSSTAYMELNSLTSEDSAVYFCARGGVRRYFDVWGAGTTVTVSS VL: DIQMTQSPSSLSASLGERVSLTCRASQDIGSNLNWLQQEPDGTIKRLISATFSLDSGVPKRFSGSRSGSDYSLTISSLESEDFVNYYCLQYASFPYTFGGGTKLEIK | 8.25 nM | 34300 | 1.97 nM | 2830 | 18.5 nM | 19200 |
| ch20C4E1 (antibody, V domains shown) VH: EVRLVESGGALVRPGGSLKLSCAASGFTFSDYGMHWVRQAPEKGLEWIAFISSVSFTIYYADTVKGRFTISRDNAKNTLFLQMTSLRSEDTALYYCTRLGPHWYFDVWGTGTTVTVSS VL: DVVLTQTPLSLPVSLGDQASISCRSSQSLVYSNGNTYLHWFLQKPGQSPQLLIYKVSNRFSGVPDRFSGSGSGTDFTLKISRVEAEDLGVYFCSQSTPVPTFGGGTKLEIK | 11.5 nM | 45800 | 2.83 nM | 4110 | 3940 nM | 5.06e+06 |
| ch28H9C12 (antibody, V domains shown) VH: EVQLVESGGGLVKPGGSLKLSCAASGFTFSDYGMHWVRQAPEKGLEWVAYISSGSSTIYYADTVKGRFTISRDNAKNTLFLQMTSLRSEDTAIYYCVRRPWYFDVWGTGTTVTVSS VL: DVLMTQTPLSLPVSLGDQASISCRSSQSIVHSNGNTYLQWYLQKPGQSPKLLIYKVSNRFSGVPDRFSGSGSGTDFTLKISRLEAEDLGVYYCFQGSHVPFTFGSGTKLEIK | 14.8 nM | 65900 | 2.83 nM | 3960 | 110 nM | 26500 |
| ch12G12C2 (antibody, V domains shown) VH: QIQLVQSGPELKMPGETVKISCKASGYTFTTYGLSWVKQAPGKGLKWMGWINTFSGVPIYADDFKGRFAFSLETSASTAYLQINNLKNEDTATYFCARWGIRQRGDYWGQGATLTVSS VL: QIVLTQSPAIMSASPGEKVTMTCSASSSVSYLHWYQQKSGTSPKRWIYDTSKLASGVPVRFSGSGSETSYSLTISSMEAEDAATYYCQQWTSNPPTFGGGTKLEIK | 5.94 nM | 28200 | 4.06 nM | 3120 | 995 nM | 1.48e+06 |
| ch26E2H6 (antibody, V domains shown) VH: EVQLVESGGDLVKPGGSLKLSCAASGFTFSSYGMSWVRQTPDKRLEWVATISSGGSYTYYPDSVKGRFTISRDNAKNTLYLQMSSLKSEDTAMYYCARHATDYWGQGTTLTVSS VL: QIVLTQSPAIMSASPGEKVTMTCSASSSVSYMHWYQQKSGTSPKRWIYDTSKLASGVPARFSGSGSGTSYSLTISSMEAEDAATYYCQQWSSNPLTFGAGTKLELK | 40.4 nM | 51300 | 3.02 nM | 2910 | 184 nM | 45700 |
| ch15D6G2 (antibody, V domains shown) VH: EVQLVESGGDLVKPGGYLRLSCAASGFTFSSHGMSWVRQTPDKRLEWVATISSGGRNTYYPDSVKGRFTISRDNAKNILYLQMSSLKSEDTAMFYCTRHSGDAMDYWGQGTSVTVSS VL: DILLTQSPAILSVSPGERVSFSCRASQSIGTNIHWYQQRTNGSPRLLIKYASESISGIPSRFSGSGSGTDFTLSINSVESEDIADYYCQQSKSWPTFGGGTKLEIK | 19.3 nM | 123000 | 1.27 nM | 4080 | 592 nM | 648000 |
